According to article PMC3169408, “Structure of triosephosphate isomerase from Cryptosporidium parvum” (Acta Crystallographica Section F: Structural Biology and …, 2011):

Target: the molecule itself
Test: crystal structure; crystals from 100 mM Bis-Tris propane pH 7.5, 200 mM sodium sulfate, 20% PEG 3350; space group P2(1); 1.55 Å; two molecules per asymmetric unit; interface analysed with PISA

B1: triosephosphate isomerase from Cryptosporidium parvum Iowa II (enzyme, UniProt Q5CSE7 1-250, looked up)
chain: MSRKYFVGGNFKCNGTKESLKTLIDSFKQVESSNSEVYVFPTSLHISLVKEFFGNDHPGVFKIGSQNISCTGNGAFTGEVSCEMLKDMDVDCSLVGHSERRQYYSETDQIVNNKVKKGLENGLKIVLCIGESLSERETGKTNDVIQKQLTEALKDVSDLSNLVIAYEPIWAIGTGVVATPGQAQEAHAFIREYVTRMYNPQVSSNLRIIYGGSVTPDNCNELIKCADIDGFLVGGASLKPTFAKIIESAQ
notes: triosephosphate isomerase, Cryptosporidium parvum Iowa II, UniProt Q5CSE7, residues 1-250 (Met1-Gln250), full length; The final model extends from Ser2 to Gln250 in both chains; also called TIM; CrpaA.01119.a.A1; source: E. coli Rosetta Oxford strain [BL21*(DE3)-R3-pRARE2], purified (IMAC, tag cleavage with 3C protease, SEC)
stoichiometry N: 2
